# Test results taken from patent publication US20030166037.
# T1: FasL1 FRET peptide (Aedans)EKELAELRESTS(Dabcyl)K-amide
# T1 sequence: KELAELRESTS
# T2: Peptide D7 (Aedans)ERNITEGEARGSVIL(Dabcyl)K-amide (not fully specified)
# T2 chain: ERNITEGEARGSVIL
# T3: FasL1 FRET peptide (Aedans)…(Dabcyl)K-amide
# T3 chain: KELAELRESTS
# T4: 29CD23 FRET peptide (Aedans)…(Dabcyl)K-amide
# T4 chain: ADLSSFKSQEL
# Assays:
# [1] = tested on: T1, FasL1 FRET peptide (Aedans)EKELAELRESTS(Dabcyl)K-amide
# [2] = target: T2, Peptide D7 …
# [3] = target: T3, FasL1 FRET peptide …
# [4] = target: T4, 29CD23 FRET peptide …
# [5] = target: T3, FasL1 FRET peptide …; assay: FRET peptide cleavage kinetics, non-linear fit of rate against substrate concentration (the filing calls it analysis of affinities)
# [6] = target: T4, 29CD23 FRET peptide …; assay: as above
Molecule,FRET peptide cleavage in similar screening assays [1],FRET peptide cleavage activity [2],Relative proteolytic Activity [3],other results
"MMP 13 (Chemicon, Cat. #CC068)",shown in similar screening assays to be a suitable substrate for the metalloproteases MMP7 and MMP 13,,,
"MMP7 (Chemicon, Cat. #CC1059)",shown in similar screening assays to be a suitable substrate for the metalloproteases MMP7 and MMP 13,,,
truncated recombinant human Aggrecanase-2 (pro- and protease domains with C-terminal FLAG epitope) (protein) SISRARQVELLLVADASMARLYGRGLQHYLLTLASIANRLYSHASIENHIRLAVVKVVVLGDKDKSLEVSKNAATTLKNFCKWQHQHNQLGDDHEEHYDAAILFTREDLCGHHSCDTLGMADVGTICSPERSCAVIEDDGLHAAFTVAHEIGHLLGLSHDDSKFCEETFGSTEDKRLMSSILTSIDASKPWSKCTSATITEFLDDGHGNCLLDLPRKQILGGDYKDDDDKG,,Neither Aggrecanase-1 nor Aggrecanase-2 showed any activity on this peptide,*****,Vm [3]: 2.8 rfu/min; Relative proteolytic Activity [4]: *****; Vm [4]: 0.6 rfu/min; Km [5]: 80 µM; Km [6]: 40 µM
truncated recombinant human Aggrecanase-1 (pro- and protease domains with C-terminal FLAG epitope) (protein) FASLSRFVETLVVADDKMAAFHGAGLKRYLLTVMAAAAKAFKHPSIRNPVSLVVTRLVILGSGEEGPQVGPSAAQTLRSFCAWQRGLNTPEDSDPDHFDTAILFTRQDLCGVSTCDTLGMADVGTVCDPARSCAIVEDDGLQSAFTAAHELGHVFNMLHDNSKPCISLNGPLSTSRHVMAPVMAHVDPEEPWSPCSARFITDFLDNGYGHCLLDKPEAPLHLPVTGDYKDDDDKG,,Neither Aggrecanase-1 nor Aggrecanase-2 showed any activity on this peptide,*,
